Test [1] concerns the target T1, Methanocaldococcus jannaschii RecJ2 (MJ0831) (Methanocaldococcus jannaschii (strain …, UniProt Q58241)).
T1 chain: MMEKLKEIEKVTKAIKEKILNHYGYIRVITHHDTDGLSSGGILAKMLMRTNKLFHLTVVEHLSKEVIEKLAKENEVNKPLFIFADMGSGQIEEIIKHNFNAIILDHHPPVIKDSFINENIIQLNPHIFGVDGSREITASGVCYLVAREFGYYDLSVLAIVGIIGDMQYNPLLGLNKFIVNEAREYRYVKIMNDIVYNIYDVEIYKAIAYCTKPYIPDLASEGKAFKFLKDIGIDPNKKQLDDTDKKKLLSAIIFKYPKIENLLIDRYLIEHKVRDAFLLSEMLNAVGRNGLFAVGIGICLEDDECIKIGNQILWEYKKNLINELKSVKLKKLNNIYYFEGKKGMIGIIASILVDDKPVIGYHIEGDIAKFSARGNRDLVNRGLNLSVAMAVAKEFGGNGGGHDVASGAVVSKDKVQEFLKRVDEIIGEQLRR
Description: Ni-NTA pulldown (co-purification).

Test [2] deals with T1, Methanocaldococcus jannaschii RecJ2 …. In words: gel filtration (Superdex 200); MST also negative. (Size exclusion chromatography separates by hydrodynamic size, large species first.)

B1: Methanocaldococcus jannaschii GINS (MJ0248), 6×His tag and sumo domain removed (protein)
chain: MRVFIIIIYFRCFSKDHKPYFVITMYESLKNYFFEEIKNDKLLKLPDDFYDDIREYIKNIKDDIELERVKYYFKELRKLRIYKALYLDNERENLLPEELNIIHAIENIVVELKIEETPEFKKPTEIDTPKPIYTINDIDVVKVDKNFPPFTDGTFIYDLNKNDVLSLDRKISHILEKHRIISRIGESYENPEES
With B1, in test [1], the binding result is listed as “no binding”.

B2: Methanocaldococcus jannaschii GINS (MJ0248), tag state not stated (protein)
chain: MRVFIIIIYFRCFSKDHKPYFVITMYESLKNYFFEEIKNDKLLKLPDDFYDDIREYIKNIKDDIELERVKYYFKELRKLRIYKALYLDNERENLLPEELNIIHAIENIVVELKIEETPEFKKPTEIDTPKPIYTINDIDVVKVDKNFPPFTDGTFIYDLNKNDVLSLDRKISHILEKHRIISRIGESYENPEES
B2: the binding result in test [2] was “no binding”.

The record behind these values is article PMC5615345 (2017).
